Molecular target: T1, B7-H3 on LAN-1 cells (human) (UniProt Q5ZPR3)
T1 sequence (looked up): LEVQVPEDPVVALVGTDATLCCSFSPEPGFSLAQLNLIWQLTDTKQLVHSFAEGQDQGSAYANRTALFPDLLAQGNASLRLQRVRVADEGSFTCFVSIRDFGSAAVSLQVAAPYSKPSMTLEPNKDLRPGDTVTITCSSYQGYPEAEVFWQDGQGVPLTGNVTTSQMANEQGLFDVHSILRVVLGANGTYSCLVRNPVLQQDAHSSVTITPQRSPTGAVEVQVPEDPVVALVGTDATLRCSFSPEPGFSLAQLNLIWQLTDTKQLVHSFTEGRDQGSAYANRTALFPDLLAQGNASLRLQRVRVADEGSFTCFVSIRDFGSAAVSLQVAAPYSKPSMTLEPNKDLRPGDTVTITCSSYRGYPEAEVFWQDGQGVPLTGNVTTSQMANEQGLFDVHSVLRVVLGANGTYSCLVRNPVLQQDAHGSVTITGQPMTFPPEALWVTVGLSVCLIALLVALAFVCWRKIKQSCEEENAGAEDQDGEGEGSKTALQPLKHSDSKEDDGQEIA
Test: flow cytometry wash-off on LAN-1 cells, FITC-labeled goat anti-mouse second antibody

- retention on cells after 10 washes (MFI as percent of the baseline after first wash): 80%
B1: 8H9 (antibody, INN chains, looked up, mouse IgG1, V domains shown)
VH: QVQLQQSGAELVKPGASVKLSCKASGYTFTNYDINWVRQRPEQGLEWIGWIFPGDGSTQYNEKFKGKATLTTDTSSSTAYMQLSRLTSEDSAVYFCARQTTATWFAYWGQGTLVTVSA
VL: DIVMTQSPATLSVTPGDRVSLSCRASQSISDYLHWYQQKSHESPRLLIKYASQSISGIPSRFSGSGSGSDFTLSINSVEPEDVGVYYCQNGHSFPLTFGAGTKLELK

From patent US20170253660A1
